Tests used:
[1] = target: T1, α-IL12β heavy-hCHIg_Hole_Cys (SEQ ID NO: 170) (Homo sapiens (Human), UniProt P0DOX5 1-449 = IgG part); assay: intact MS of papain-cleaved multispecific molecule 3; Fab of this pairing observed (observed mass, Da)
T1 construct: full heavy chain, human Fc hole; Fab analysed after papain cleavage in the MS assay; germline VH3-33*01; also called HCP1 of multispecific molecules 3 and 9

[2] = target: T2, α-CTLA4 heavy-hCHIg_Knob_Cys (SEQ ID NO: 168) (Homo sapiens (Human), UniProt P0DOX5 1-449 = IgG part); assay: intact MS of papain-cleaved multispecific molecule 3; Fab 'Kappa heavy chain/lambda light chain' not observed
T2 construct: full heavy chain, human Fc knob; Fab analysed after papain cleavage in the MS assay; germline VH3-30*01; also called HCP2 of multispecific molecules 3, 4, 5, 9

[3] = target: T3, α-CCR2 heavy-LgBiT (SEQ ID NO: 158); assay: NanoBiT, HC-LgBiT:LC-SmBiT:competing LC 1:1:1; competing kappa LC m42 (SEQ ID NO: 133)
T3 construct: VH-CH1-linker-LgBiT; germline VH3-7*01

[4] = target: T3, α-CCR2 heavy-LgBiT (SEQ ID NO: 158); assay: NanoBiT, HC-LgBiT:LC-SmBiT:competing LC 1:1:1; competing kappa LC m15 (SEQ ID NO: 106)
[5] = target: T3, α-CCR2 heavy-LgBiT (SEQ ID NO: 158); assay: NanoBiT, HC-LgBiT:LC-SmBiT:competing LC 1:1:1; competing kappa LC m12 (SEQ ID NO: 103)
[6] = target: T3, α-CCR2 heavy-LgBiT (SEQ ID NO: 158); assay: NanoBiT, HC-LgBiT:LC-SmBiT:competing LC 1:1:1; competing kappa LC m18 (SEQ ID NO: 109)
[7] = target: T3, α-CCR2 heavy-LgBiT (SEQ ID NO: 158); assay: NanoBiT, HC-LgBiT:LC-SmBiT:competing LC 1:1:1; competing kappa LC m9 (SEQ ID NO: 100)
[8] = target: T3, α-CCR2 heavy-LgBiT (SEQ ID NO: 158); assay: NanoBiT, HC-LgBiT:LC-SmBiT:competing LC 1:1:1; competing kappa LC m24 (SEQ ID NO: 115)
[9] = target: T3, α-CCR2 heavy-LgBiT (SEQ ID NO: 158); assay: NanoBiT, HC-LgBiT:LC-SmBiT:competing LC 1:1:1; competing kappa LC m6 (SEQ ID NO: 97)
[10] = target: T4, α-complement C5 heavy-LgBiT (SEQ ID NO: 152); assay: NanoBiT, HC-LgBiT:LC-SmBiT:competing LC 1:1:1; competing kappa LC m42 (SEQ ID NO: 133)
T4 construct: VH-CH1-linker-LgBiT; germline VH1-69*01

[11] = target: T5, α-CCR2 heavy-LgBiT (SEQ ID NO: 155); assay: as above
T5 construct: VH-CH1-linker-LgBiT; germline VH1-2*01

[12] = target: T5, α-CCR2 heavy-LgBiT (SEQ ID NO: 155); assay: NanoBiT, HC-LgBiT:LC-SmBiT:competing LC 1:1:1; competing kappa LC m33 (SEQ ID NO: 124)
[13] = target: T5, α-CCR2 heavy-LgBiT (SEQ ID NO: 155); assay: NanoBiT, HC-LgBiT:LC-SmBiT:competing LC 1:1:1; competing kappa LC m24 (SEQ ID NO: 115)
[14] = target: T5, α-CCR2 heavy-LgBiT (SEQ ID NO: 155); assay: NanoBiT, HC-LgBiT:LC-SmBiT:competing LC 1:1:1; competing kappa LC m36 (SEQ ID NO: 127)
[15] = target: T6, α-HER3 heavy-LgBiT (SEQ ID NO: 143); assay: NanoBiT, HC-LgBiT:LC-SmBiT:competing LC 1:1:1; competing kappa LC m21 (SEQ ID NO: 112)
T6 construct: VH-CH1-linker-LgBiT; germline VH3-9*01

[16] = target: T6, α-HER3 heavy-LgBiT (SEQ ID NO: 143); assay: NanoBiT, HC-LgBiT:LC-SmBiT:competing LC 1:1:1; competing kappa LC m42 (SEQ ID NO: 133)
[17] = target: T6, α-HER3 heavy-LgBiT (SEQ ID NO: 143); assay: NanoBiT, HC-LgBiT:LC-SmBiT:competing LC 1:1:1; competing kappa LC m33 (SEQ ID NO: 124)
[18] = target: T6, α-HER3 heavy-LgBiT (SEQ ID NO: 143); assay: NanoBiT, HC-LgBiT:LC-SmBiT:competing LC 1:1:1; competing kappa LC m15 (SEQ ID NO: 106)
[19] = target: T6, α-HER3 heavy-LgBiT (SEQ ID NO: 143); assay: NanoBiT, HC-LgBiT:LC-SmBiT:competing LC 1:1:1; competing kappa LC m12 (SEQ ID NO: 103)
[20] = target: T6, α-HER3 heavy-LgBiT (SEQ ID NO: 143); assay: NanoBiT, HC-LgBiT:LC-SmBiT:competing LC 1:1:1; competing kappa LC m27 (SEQ ID NO: 118)
[21] = target: T6, α-HER3 heavy-LgBiT (SEQ ID NO: 143); assay: NanoBiT, HC-LgBiT:LC-SmBiT:competing LC 1:1:1; competing kappa LC m24 (SEQ ID NO: 115)
[22] = target: T6, α-HER3 heavy-LgBiT (SEQ ID NO: 143); assay: NanoBiT, HC-LgBiT:LC-SmBiT:competing LC 1:1:1; competing kappa LC m6 (SEQ ID NO: 97)
[23] = target: T6, α-HER3 heavy-LgBiT (SEQ ID NO: 143); assay: NanoBiT, HC-LgBiT:LC-SmBiT:competing LC 1:1:1; competing kappa LC m36 (SEQ ID NO: 127)

B1: α-IL12β light (SEQ ID NO: 163) (other)
light: QSVLTQPPSVSGAPGQRVTISCSGSRSNIGSNTVKWYQQLPGTAPKLLIYYNDQRPSGVPDRFSGSKSGTSASLAITGLQAEDEADYYCQSYDRYTHPALLFGTGTKVTVLGQPKANPTVTLFPPSSEELQANKATLVCLISDFYPGAVTVAWKADGSPVKAGVETTKPSKQSNNKYAASSYLSLTPEQWKSHRSYSCQVTHEGSTVEKTVAPTECS
notes: unmodified lambda light chain; germline Vl1-44*01; also called LLCP of multispecific molecule 3
B1: binds [1]; no binding [2].

B2: α-CCR2 light-SmBiT (SEQ ID NO: 159) (other)
light: QAGLTQPPSVSKGLRQTATLTCTGNSNNVGNQGAAWLQQHQGHPPKLLFYRNNNRASGISERLSASRSGNTASLTITGLQPEDEADYYCLTWDSSLSVVVFGGGTKLTVLGQPKANPTVTLFPPSSEELQANKATLVCLISDFYPGAVTVAWKADGSPVKAGVETTKPSKQSNNKYAASSYLSLTPEQWKSHRSYSCQVTHEGSTVEKTVAPTECSGSSGGGGSGGGGSSGGVTGYRLFEEIL
notes: lambda light chain-linker-SmBiT; germline Vl10-54*01
B2 showed a Percent pairing [3] of 99%, a Percent pairing [4] of 98% and a Percent pairing [5] of 100%. The Percent pairing [6] was 95%, the Percent pairing [7] was 99% and the Percent pairing [8] was 97%. For the same binder, the Percent pairing [9] was 89%.

B3: α-complement C5 light-SmBiT (SEQ ID NO: 153) (other)
light: SYELTQPLSVSVALGQTARITCSGDSIPNYYVYWYQQKPGQAPVLVIYDDSNRPSGIPERFSGSNSGNTATLTISRAQAGDEADYYCQSFDSSLNAEVFGGGTKLTVLGQPKANPTVTLFPPSSEELQANKATLVCLISDFYPGAVTVAWKADGSPVKAGVETTKPSKQSNNKYAASSYLSLTPEQWKSHRSYSCQVTHEGSTVEKTVAPTECSGSSGGGGSGGGGSSGGVTGYRLFEEIL
notes: lambda light chain-linker-SmBiT; germline Vl3-9*01
With B3 the Percent pairing [10] was 79%.

B4: α-CCR2 light-SmBiT (SEQ ID NO: 156) (other)
light: LPVLTQPPSVSKGLRQTATLTCTGNSNNVGNQGAAWLQQHQGQPPKLLSYRNHNRPSGVSERFSPSRSGDTSSLTITGLQPEDEADYYCLAWDSSLRAFVFGTGTKLTVLGQPKANPTVTLFPPSSEELQANKATLVCLISDFYPGAVTVAWKADGSPVKAGVETTKPSKQSNNKYAASSYLSLTPEQWKSHRSYSCQVTHEGSTVEKTVAPTECSGSSGGGGSGGGGSSGGVTGYRLFEEIL
notes: as for B2
B4 was tested, and the Percent pairing [11] was 100%, the Percent pairing [12] was 80% and the Percent pairing [13] was 90%. It also gave a Percent pairing [14] of 77%.

B5: α-HER3 light-SmBiT (SEQ ID NO: 144) (other)
light: SYELTQDPAVSVALGQTVRITCQGDSLRSYYASWYQQKPGQAPVLVIYGKNNRPSGIPDRFSGSTSGNSASLTITGAQAEDEADYYCNSRDSPGNQWVFGGGTKVTVLGGQPKANPTVTLFPPSSEELQANKATLVCLISDFYPGAVTVAWKADGSPVKAGVETTKPSKQSNNKYAASSYLSLTPEQWKSHRSYSCQVTHEGSTVEKTVAPTECSGSSGGGGSGGGGSSGGVTGYRLFEEIL
notes: lambda light chain-linker-SmBiT; germline Vl3-19*01
B5 was tested, and the Percent pairing [15] was 100%, the Percent pairing [16] was 100% and the Percent pairing [17] was 100%. The Percent pairing [18] was 93%, the Percent pairing [19] was 80% and the Percent pairing [20] was 90%. For the same binder, the Percent pairing [21] was 86%, the Percent pairing [22] was 100% and the Percent pairing [23] was 100%.

— patent publication US20230272119A1 (MARENGO THERAPEUTICS, published 2023)
